Assays:
ApoER2 = target: T1, ApoER2 (Mus musculus, UniProt Q924X6); test: GST pull-down of ApoER2 by X11α domains; assay type: binding, murine; details: GST fusions of X11α domains, Western blot (FIG. 8A)
T1 construct: expressed in transfected cells; host or cells: HEK293 (inferred; the pull-down text names HEK293 lysates only for X11-transfected cells)
T1 sequence (Q924X6 29-996): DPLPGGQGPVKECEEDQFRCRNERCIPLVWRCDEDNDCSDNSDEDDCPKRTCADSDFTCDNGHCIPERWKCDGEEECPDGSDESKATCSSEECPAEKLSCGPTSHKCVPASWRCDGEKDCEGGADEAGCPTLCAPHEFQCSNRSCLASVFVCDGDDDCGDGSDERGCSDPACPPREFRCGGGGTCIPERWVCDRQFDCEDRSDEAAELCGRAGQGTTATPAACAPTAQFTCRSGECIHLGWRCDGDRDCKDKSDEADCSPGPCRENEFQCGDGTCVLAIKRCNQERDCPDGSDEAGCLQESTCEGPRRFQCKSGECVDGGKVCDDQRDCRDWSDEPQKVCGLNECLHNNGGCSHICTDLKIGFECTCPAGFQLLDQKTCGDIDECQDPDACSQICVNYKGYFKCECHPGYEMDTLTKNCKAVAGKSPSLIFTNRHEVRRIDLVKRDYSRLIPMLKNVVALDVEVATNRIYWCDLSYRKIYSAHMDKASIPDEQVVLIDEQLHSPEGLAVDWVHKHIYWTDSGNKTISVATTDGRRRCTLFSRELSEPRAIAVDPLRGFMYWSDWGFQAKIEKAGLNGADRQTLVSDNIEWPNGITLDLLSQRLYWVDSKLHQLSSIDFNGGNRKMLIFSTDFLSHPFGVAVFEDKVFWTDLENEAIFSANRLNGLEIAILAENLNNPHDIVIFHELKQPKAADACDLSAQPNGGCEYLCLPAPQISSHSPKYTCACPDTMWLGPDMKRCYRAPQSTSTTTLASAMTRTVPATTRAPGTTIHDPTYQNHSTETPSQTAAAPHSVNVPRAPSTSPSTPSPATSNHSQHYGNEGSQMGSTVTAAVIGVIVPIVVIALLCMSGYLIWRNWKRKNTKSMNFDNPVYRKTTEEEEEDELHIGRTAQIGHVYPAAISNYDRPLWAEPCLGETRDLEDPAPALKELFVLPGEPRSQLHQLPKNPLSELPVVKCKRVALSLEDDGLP
Text: cDNA vectors. Vectors for human β-secretase and Swedish mutant of APP were previously described (Lin et al., 2000). Vectors for human X11α, X11β, human LRP, and murine ApoER2 were kindly provided by Dr. Chistopher C J Miller (Kings College London, UK), Dr. Ben Margolis (University of Michigan), Dr. Guojun Bu (Washington University), and Dr. Johannes Nimpf (University of Vienna, Austria) respectively. PCR was used for transferring murine ApoER2 gene into pcDNA6 with V5-His-Tag at the C-terminus and for creating mutants of murine ApoER2 in pcDNA6. PTB domain of X11α (residue 457-751) were amplified by PCR and inserted into pcDNA6. GST constructs of GST-PTB (457-751), GST-PDZ (650-837) of X11α and GST constructs of ApoER2 cytosolic domain GST-ApoC1 (881-996), GST-ApoC2 (881-925), GST-ApoC3 (926-996) and GST-APPc (650-695) were amplified by PCR and inserted into plasmid pGEX6.1 (Pharmacia). All constructs were verified by sequencing. GST fusion proteins were produced in Escherichia coli BL21 strain and purified as described previously (He et al., 2003).
Pull-down assays. For GST pull down, GST fusion proteins were retrieved as previously described (He et al., 2003). The amount of protein recovered with glutathione beads was determined using Bio-Rad Protein Assay and diluted to yield a concentration of 1 mg protein/mL of beads. […]

endogenous X11α/β = test: Effect of transfected PTB domain of X11α on ApoE-induced Aβ production; assay type: cell-based, mouse; details: PTB expression in N2a-APPsw cells, 0.4 μg vector per well (FIG. 9B)
Procedure: Cellular Aβ40 production. Neuroblastoma N2a-APPsw cells (from Dr. Riqiang Yan, Lerner Research Institute, Cleveland, Ohio) were cultured in 24-well plates in Dulbecco's Modified Eagle's medium (DMED) containing 10% fetal bovine serum, 100 U/mL penicillin, and 100 μg/mL streptomycin (GibcoBUR) with 80 μg/mL G418 one day before use. Transient transfections were done using FeGENE6 (Roche), fresh Optimum medium (Invitrogen) were supplied 5 h after transfection. Apolipoproteins were added in the fresh medium at 10 μg/mL. Conditioned medium was collected 24 h later. Aβ40 was determined in tripcates using Aβ40 ELISA Kit (Biosource). For studying the effect of PTB domain on Aβ production, N2a-APPsw cells were transfected with (0.4 μg/per well for 24 well plate) of PTB-containing vector before subjected to the above procedure.

pull down of ApoER2 from the cell lysate (ApoER2): pull down ApoER2
B1: PTB domain: PTB domain of X11α (residue 457-751), expressed from pcDNA6 as dominant-negative inhibitor or as GST fusion (protein)
chain: DGIIFAANYLGSTQLLSDKTPSKNVRMMQAQEAVSRIKMAQKLAKSRKKAPEGESQPMTEVDLFISTQRIKVLNADTQETMMDHPLRTISYIADIGNIVVLMARRRMPRSNSQENVEASHPSQDGKRQYKMICHVFESEDAQLIAQSIGQAFSVAYQEFLRANGINPEDLSQKEYSDLLNTQDMYNDDLIHFSKSENCKDVFIEKQKGEILGVVIVESGWGSILPTVIIANMMHGGPAEKSGKLNIGDQIMSINGTSLVGLPLSTCQSIIKGLKNQSRVKLNIVRCPPVTTVLIR
modifications: left off: a dimerising Fc or GST
ApoE4-induced Aβ increase (endogenous X11α/β): largely abolished

— patent US20070248599A1 (priority 2006, published 2007)
